Measured values taken from article PMC6637311, “Glyceraldehyde-3-Phosphate Dehydrogenase of Babesia microti Is a Plasminogen- and Actin-Binding Protein” (Frontiers in Veterinary Science, 2019).

Tested on: O=C[C@H](O)COP(=O)(O)O
Assay: purified protein
Conditions: 0.5 mM NAD+, 50 mM glycine, 50 mM KH2PO4, 5 mM EDTA, pH 9.5, 25 °C

rBmGAPDH (Babesia microti strain RI)
Km: 583 µM
